Data as given in publication doi:10.1101/2023.04.12.536585 (2023).

Assays:
[1] = biological target: p110γ-p84 complex (human p110γ, mouse p84) (human | mouse, UniProt P48736 1-1102; Q3U6Q4 1-756); assay: BLI
[2] = biological target: p110γ-p101 complex (human p110γ, porcine p101) (human | porcine (Sus scrofa), UniProt P48736 1-1102; O02696 1-877); assay: BLI
Chain of p110γ-p101 complex (human p110γ, porcine p101) (P48736 whole entry, chain 1 of 2): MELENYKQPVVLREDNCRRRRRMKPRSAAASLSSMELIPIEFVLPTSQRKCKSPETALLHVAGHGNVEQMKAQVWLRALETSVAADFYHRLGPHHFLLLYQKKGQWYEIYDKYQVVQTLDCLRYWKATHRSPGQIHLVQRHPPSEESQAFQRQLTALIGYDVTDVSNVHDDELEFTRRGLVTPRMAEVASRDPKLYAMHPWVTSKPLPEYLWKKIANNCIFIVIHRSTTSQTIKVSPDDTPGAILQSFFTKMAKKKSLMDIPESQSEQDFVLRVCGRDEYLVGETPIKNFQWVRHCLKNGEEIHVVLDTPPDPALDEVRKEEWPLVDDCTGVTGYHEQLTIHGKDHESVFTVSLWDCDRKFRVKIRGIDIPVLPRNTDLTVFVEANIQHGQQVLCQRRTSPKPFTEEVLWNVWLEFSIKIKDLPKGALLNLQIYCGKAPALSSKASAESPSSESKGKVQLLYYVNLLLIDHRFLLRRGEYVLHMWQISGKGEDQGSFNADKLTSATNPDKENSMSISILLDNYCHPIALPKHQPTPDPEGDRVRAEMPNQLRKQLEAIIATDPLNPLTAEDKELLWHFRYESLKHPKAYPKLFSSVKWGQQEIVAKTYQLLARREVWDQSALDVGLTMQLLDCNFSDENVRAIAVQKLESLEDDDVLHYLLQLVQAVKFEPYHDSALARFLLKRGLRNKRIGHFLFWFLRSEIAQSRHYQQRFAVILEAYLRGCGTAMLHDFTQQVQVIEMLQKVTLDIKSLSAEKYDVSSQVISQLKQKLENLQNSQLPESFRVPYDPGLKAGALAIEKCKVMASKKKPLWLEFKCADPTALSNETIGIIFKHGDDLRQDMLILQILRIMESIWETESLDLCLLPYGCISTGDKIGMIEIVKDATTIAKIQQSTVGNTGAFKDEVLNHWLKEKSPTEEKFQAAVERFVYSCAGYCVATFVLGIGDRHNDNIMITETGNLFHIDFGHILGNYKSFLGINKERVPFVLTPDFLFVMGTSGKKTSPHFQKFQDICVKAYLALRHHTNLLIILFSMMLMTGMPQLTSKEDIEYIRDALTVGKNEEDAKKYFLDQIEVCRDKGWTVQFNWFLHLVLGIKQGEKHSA
Chain of p110γ-p101 complex (human p110γ, porcine p101) (O02696 whole entry, chain 2 of 2): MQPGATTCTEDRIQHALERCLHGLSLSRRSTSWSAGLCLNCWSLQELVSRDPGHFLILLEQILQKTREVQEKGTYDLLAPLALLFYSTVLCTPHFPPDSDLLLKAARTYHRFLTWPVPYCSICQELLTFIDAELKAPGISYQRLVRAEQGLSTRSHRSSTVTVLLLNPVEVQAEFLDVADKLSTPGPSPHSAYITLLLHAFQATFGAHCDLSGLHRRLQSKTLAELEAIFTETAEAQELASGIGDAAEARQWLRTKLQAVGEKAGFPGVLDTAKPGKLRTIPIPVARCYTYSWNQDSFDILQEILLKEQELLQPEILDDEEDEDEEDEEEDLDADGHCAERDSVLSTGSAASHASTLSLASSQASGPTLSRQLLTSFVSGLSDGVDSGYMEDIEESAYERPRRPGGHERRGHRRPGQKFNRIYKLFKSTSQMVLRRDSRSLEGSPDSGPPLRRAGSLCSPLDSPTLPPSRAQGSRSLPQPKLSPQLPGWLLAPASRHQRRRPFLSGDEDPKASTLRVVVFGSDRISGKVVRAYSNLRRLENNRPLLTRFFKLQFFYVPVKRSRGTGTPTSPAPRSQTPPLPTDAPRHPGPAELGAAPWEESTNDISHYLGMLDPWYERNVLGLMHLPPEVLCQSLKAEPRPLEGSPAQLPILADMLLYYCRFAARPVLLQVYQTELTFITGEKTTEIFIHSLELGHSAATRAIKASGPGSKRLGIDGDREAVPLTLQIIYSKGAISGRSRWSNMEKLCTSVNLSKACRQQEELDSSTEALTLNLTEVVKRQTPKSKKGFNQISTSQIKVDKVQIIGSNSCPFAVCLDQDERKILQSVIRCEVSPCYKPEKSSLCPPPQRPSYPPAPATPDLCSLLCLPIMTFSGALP

Chain of p110γ-p84 complex (human p110γ, mouse p84) (P48736 whole entry, chain 1 of 2): as the sequence (P48736 whole entry, chain 1 of 2) above
Chain of p110γ-p84 complex (human p110γ, mouse p84) (Q3U6Q4 whole entry, chain 2 of 2): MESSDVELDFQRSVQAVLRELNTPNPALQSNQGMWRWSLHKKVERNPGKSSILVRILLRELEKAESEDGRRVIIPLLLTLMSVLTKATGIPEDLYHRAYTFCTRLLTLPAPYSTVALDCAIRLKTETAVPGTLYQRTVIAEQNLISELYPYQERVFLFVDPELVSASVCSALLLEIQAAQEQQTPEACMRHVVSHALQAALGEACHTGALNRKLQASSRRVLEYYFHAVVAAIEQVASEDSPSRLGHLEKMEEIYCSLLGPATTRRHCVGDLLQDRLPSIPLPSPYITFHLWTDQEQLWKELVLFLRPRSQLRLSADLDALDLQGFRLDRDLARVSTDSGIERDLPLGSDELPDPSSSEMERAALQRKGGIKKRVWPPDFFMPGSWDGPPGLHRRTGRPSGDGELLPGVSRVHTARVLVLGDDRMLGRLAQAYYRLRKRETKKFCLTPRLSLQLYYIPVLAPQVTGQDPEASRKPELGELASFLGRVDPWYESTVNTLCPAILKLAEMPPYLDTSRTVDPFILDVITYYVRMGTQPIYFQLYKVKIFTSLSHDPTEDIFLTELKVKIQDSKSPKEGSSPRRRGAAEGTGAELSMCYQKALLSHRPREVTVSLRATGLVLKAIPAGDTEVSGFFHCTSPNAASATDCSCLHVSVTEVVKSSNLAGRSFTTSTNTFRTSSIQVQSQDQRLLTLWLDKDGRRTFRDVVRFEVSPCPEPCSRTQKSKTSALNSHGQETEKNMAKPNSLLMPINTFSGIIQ

B1: Nanobody NB7-PIK3CG (VHH)
VHH: QVQLVESGGGLVQPGGSLRLSCAASGSIFSINAMGWYRQAPGKQRELVAHITSGGSTNYADSVKGRFTISRDNAKNTVYLQMNSLKPEDTAVYYCNEAGDPFLGSTWNGPPAFGSWGQGTQVTVSS
Kd [1]: 3 nM
Kd [2]: 3.1 nM
